The record followed here is publication PMC4131202 (Current biology : CB, 2013).

The assay addresses muscle actin filaments (UniProt P68135 1-377). Nature of the assay: co-sedimentation.

B1: GST-Pan1(1633-1794), C-terminal fragment of fission yeast Pan1p including the A, PP and W domains (domain or fragment)
chain: PPAPSPLQPSGHDSDNWSQHGDEEEEDSEDDIRSSKDAAALAAKLFGGMAPAHPVSTPPVRPQSAAPPQMSAPTPPPPPMSVPPPPSAPPMPAGPPSAPPPPLPASSAPSVPNPGDRSALLQQIHTGTRLKKTVTTDKSKPIAGRVLDASDGNSSAWYGNLS
A word on the Kd: it is the constant that tells how readily two partners part at equilibrium. Low values mean tighter binding, high ones weaker binding. The molecule B1 gave a Kd of 2900 nM.
